Earlier results as cited in PMC7076691.

Molecular target: Bfd (Pseudomonas aeruginosa) (UniProt Q9HY80)
UniProt Q9HY80, sequence (Q9HY80 whole entry): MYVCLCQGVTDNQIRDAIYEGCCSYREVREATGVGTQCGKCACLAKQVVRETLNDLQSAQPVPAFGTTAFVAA

For BfrB (from UniProt Q9HY79), the Kd is listed as 3000 nM.
